{"source": "patent US20260139033A1", "about": "(PRANA THERAPIES, published 2026)", "binders": {"B1": {"name": "Candidate-42: Heavy and Light chain C-terminal TRAP: Dupilumab-YTE_Linker-GS4_TSLP TRAP 2 [4 x TRAP 2] (bispecific antibody, human IgG4 S228P, kappa)", "heavy": "EVQLVESGGGLEQPGGSLRLSCAGSGFTFRDYAMTWVRQAPGKGLEWVSSISGSGGNTYYADSVKGRFTISRDNSKNTLYLQMNSLRAEDTAVYYCAKDRLSITIRPRYYGLDVWGQGTTVTVSSASTKGPSVFPLAPCSRSTSESTAALGCLVKDYFPEPVTVSWNSGALTSGVHTFPAVLQSSGLYSLSSVVTVPSSSLGTKTYTCNVDHKPSNTKVDKRVESKYGPPCPPCPAPEFLGGPSVFLFPPKPKDTLYITREPEVTCVVVDVSQEDPEVQFNWYVDGVEVHNAKTKPREEQFNSTYRVVSVLTVLHQDWLNGKEYKCKVSNKGLPSSIEKTISKAKGQPREPQVYTLPPSQEEMTKNQVSLTCLVKGFYPSDIAVEWESNGQPENNYKTTPPVLDSDGSFFLYSRLTVDKSRWQEGNVFSCSVMHEALHNHYTQKSLSLSLGGGGGSGGGGSGGGGSGGGGSESGYAQNGDLEDAELDDYSFSCYSQLEVNGSQHSLTCAFEDPDVNITNLEFEICGALVEVKCLNFRKLQEIYFIETKKFLLIGKSNICVKVGEKSLTCKKIDLTTIVKPEAPFDLSVVYREGANDFVVTFNTSHLQKKYVKVLMHDVAYRQEKDENKWTHVNLSSTKLTLLQRKLQPAAMYEIKVRSIPDHYFKGFWSEWSPSYYFRTPEINNSSGEMDGGSGGSGGSGGSGGSGGSGGSGGSGGSGGSGGSGGSGGSGGSGGSGGSGGSGGSGGSGGSGAAEGVQIQIIYFNLETVQVTWNASKYSRTNLTFHYRFNGDEAYDQCTNYLLQEGHTSGCLLDAEQRDDILYFSIRNGTHPVFTASRWMVYYLKPSSPKHVRFSWHQDAVTVTCSDLSYGDLLYEVQYRSPFDTEWQSKQENTCNVTIEGLDAEKCYSFWVRVKAMEDVYGPDTYPSDWSEVTCWQRGEIRDACAETPTPPKPKLSK", "light": "DIVMTQSPLSLPVTPGEPASISCRSSQSLLYSIGYNYLDWYLQKSGQSPQLLIYLGSNRASGVPDRFSGSGSGTDFTLKISRVEAEDVGFYYCMQALQTPYTFGQGTKLEIKRTVAAPSVFIFPPSDEQLKSGTASVVCLLNNFYPREAKVQWKVDNALQSGNSQESVTEQDSKDSTYSLSSTLTLSKADYEKHKVYACEVTHQGLSSPVTKSFNRGECGGGGSGGGGSGGGGSGGGGSESGYAQNGDLEDAELDDYSFSCYSQLEVNGSQHSLTCAFEDPDVNITNLEFEICGALVEVKCLNFRKLQEIYFIETKKFLLIGKSNICVKVGEKSLTCKKIDLTTIVKPEAPFDLSVVYREGANDFVVTFNTSHLQKKYVKVLMHDVAYRQEKDENKWTHVNLSSTKLTLLQRKLQPAAMYEIKVRSIPDHYFKGFWSEWSPSYYFRTPEINNSSGEMDGGSGGSGGSGGSGGSGGSGGSGGSGGSGGSGGSGGSGGSGGSGGSGGSGGSGGSGGSGGSGAAEGVQIQIIYFNLETVQVTWNASKYSRTNLTFHYRFNGDEAYDQCTNYLLQEGHTSGCLLDAEQRDDILYFSIRNGTHPVFTASRWMVYYLKPSSPKHVRFSWHQDAVTVTCSDLSYGDLLYEVQYRSPFDTEWQSKQENTCNVTIEGLDAEKCYSFWVRVKAMEDVYGPDTYPSDWSEVTCWQRGEIRDACAETPTPPKPKLSK", "notes": "The chains here are built from the component entries"}}, "key": {"[1]": {"molecular_target": "IL-4R on human donor PBMC (B-cells) (human, UniProt P24394 26-825)", "assay": "cell-based or functional assay"}, "recombinant human TSLP [2]": {"molecular_target": "T1, recombinant human TSLP (human, UniProt Q969D9 29-159)", "T1 construct": "also called thymic stromal lymphopoietin", "assay": "SPR (Biacore 3000, CM5 chip, 25 C): complex captured via protein A, TSLP as analyte, 1:1 fit; column 'TSLP binding(pM)'", "method": "(§1) SPR studies were carried out on a Biacore 3000 instrument with a CM5 chip at 25° C. The running buffer comprised 25 mM Hepes, pH 7.5, 150 mM NaCl, 0.5 mg/ml BSA, 0.005% P20. Antibodies were captured via protein A using approximately a 1/50 dilution of each antibody in the running buffer and a 2-minute contact time at a 10 μl/min flow rate. Protein A was immobilized on a CM5 chip via standard amine coupling chemistry in 10 mM acetate pH 4.5. Approximately 800 RU of each antibody was captured. The surfaces were regenerated via a 10 mM glycine pH 1.5 between cycles. Between assays the chip was regenerated with a 2-minute pulse of 100 mM Phosphoric acid. Prior to setting up multicycle kinetic analysis analyte concentration was determined spectrophotometrically using an extinction coefficient of 72,880 M⁻¹ cm⁻¹ for IL4R and 18450 M⁻¹ cm⁻¹ for the TSLP proteins respectively. Analyte samples were prepared by diluting stocks into running buffer to a final concentration of 500 nM for the IL-4R and 25 nM for TSLP followed by serially diluting with a 2-fold series with an association time of 2.5 minutes at a 50 μl/min flow rate. Dissociation data was collected for a period of 1600 seconds. Raw data was analyzed using the Scrubber2 (Biologic Software, AU) program using a double referencing procedure where compound signal is corrected to a blank surface and a buffer injection over the captured antibody surface. Kinetic data was analyzed by fitting to a simple 1:1 binding model. […] The candidates are further described in Table 3."}, "recombinant human TSLP [3]": {"molecular_target": "T1, recombinant human TSLP", "assay": "SPR; column 'SPR (Biophysical binding): TSLP (pM)'", "method": "as §1"}, "recombinant human TSLP [4]": {"molecular_target": "T1, recombinant human TSLP", "assay": "cell-based or functional assay"}}, "data": [{"binder": "B1", "values": [{"measurement": "IC50, CD23 upregulation on B cells of human PBMC in response to IL-4 (column 'Biological Assays: IL-4R (nM)')", "setting": "[1]", "value": "> 200", "unit": "nM"}, {"measurement": "Kd", "setting": "recombinant human TSLP [2]", "value": 0.0162, "unit": "nM"}, {"measurement": "Kd", "setting": "recombinant human TSLP [3]", "value": 0.0162, "unit": "nM"}, {"measurement": "IC50, inhibition of TSLP responses (TARC secretion) in human PBMCs", "setting": "recombinant human TSLP [4]", "value": 2.37, "unit": "nM"}]}]}
